Laboratory results published in patent US20190031771A1 (University of Pennsylvania, published 2019).
Numbering of substitutions follows the chain as printed.

T1: human ADAMTS13 (human, UniProt Q76LX8 75-1427)
T1 sequence (looked up): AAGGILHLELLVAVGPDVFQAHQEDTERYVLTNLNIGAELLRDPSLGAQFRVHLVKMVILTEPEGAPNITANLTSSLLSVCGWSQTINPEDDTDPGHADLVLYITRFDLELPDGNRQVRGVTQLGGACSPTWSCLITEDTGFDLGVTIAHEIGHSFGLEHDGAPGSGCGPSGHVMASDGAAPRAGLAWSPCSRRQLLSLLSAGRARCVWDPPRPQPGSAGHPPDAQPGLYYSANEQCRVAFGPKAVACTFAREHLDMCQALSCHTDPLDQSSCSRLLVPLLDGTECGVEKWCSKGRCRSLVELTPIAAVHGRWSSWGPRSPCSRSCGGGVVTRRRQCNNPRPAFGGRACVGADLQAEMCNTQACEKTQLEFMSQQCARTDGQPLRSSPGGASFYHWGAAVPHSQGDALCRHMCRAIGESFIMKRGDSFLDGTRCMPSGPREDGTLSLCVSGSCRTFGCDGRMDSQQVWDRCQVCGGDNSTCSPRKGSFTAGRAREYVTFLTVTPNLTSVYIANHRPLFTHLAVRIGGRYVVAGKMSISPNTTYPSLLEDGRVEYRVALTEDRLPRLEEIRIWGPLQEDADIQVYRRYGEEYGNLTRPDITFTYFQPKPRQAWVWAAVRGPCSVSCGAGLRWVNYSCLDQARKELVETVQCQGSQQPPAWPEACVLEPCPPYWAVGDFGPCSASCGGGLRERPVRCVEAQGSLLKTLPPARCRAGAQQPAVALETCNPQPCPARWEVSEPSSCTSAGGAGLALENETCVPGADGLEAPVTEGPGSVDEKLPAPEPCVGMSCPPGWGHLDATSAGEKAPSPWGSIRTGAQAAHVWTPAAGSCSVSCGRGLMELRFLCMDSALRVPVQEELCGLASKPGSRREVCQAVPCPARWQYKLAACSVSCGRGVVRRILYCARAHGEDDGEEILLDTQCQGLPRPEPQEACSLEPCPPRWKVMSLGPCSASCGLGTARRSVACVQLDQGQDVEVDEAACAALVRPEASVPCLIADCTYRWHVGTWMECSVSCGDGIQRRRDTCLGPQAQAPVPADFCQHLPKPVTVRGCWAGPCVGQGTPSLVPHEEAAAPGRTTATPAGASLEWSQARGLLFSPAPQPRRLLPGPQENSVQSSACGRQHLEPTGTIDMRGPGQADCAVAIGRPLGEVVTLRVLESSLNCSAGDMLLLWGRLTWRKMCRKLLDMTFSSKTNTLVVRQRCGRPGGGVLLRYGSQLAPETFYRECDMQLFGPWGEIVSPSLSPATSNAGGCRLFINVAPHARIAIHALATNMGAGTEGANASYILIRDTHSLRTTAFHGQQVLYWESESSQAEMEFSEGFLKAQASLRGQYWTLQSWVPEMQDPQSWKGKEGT

B1: scFv 1-416 (scFv, V domains shown)
VH: QVQLVQSGAEVKKPGSSVRVSCTASGSNFSSHTINWVRQAPGQGLEWMGKVIPVLDISKHAQTFLGRVIITADKSTSTAYLELSSLRSEDTAIYYCAMDSVYGNFDFWGQGTLVTVSS
VL: ELVLTQPPSVSVSPGQTARITCSGDAFPKHYAYWYQQKPGQAPVLVIYKDTERPSGIPERFSGSSSGTTATLTISGVQAEDEADYYCQSTDSSDTWVFGAGTKVTVL
B2: scFv 1-303 (scFv, V domains shown)
VH: QVQLVQSGAEVKKFGSSVKVSCKASGGTFSSYTMSWVRQAPGQGLEWMGSFIPILERANYAQKFQGRVTLTADKSTSTAYMELGSLRSEDTAVYYCARDLGDFGDSWGQGTLVTVSS
VL: ELELTQPPSVSVAPGKTARITCGGNNIGSKSVHWYQQKPGQAPVLVVYDDSDRPSGIPERFSGSNSGNTATLTISRVEAGDEADYYCQVWDSSSDHYVFGTGTKVTVL
B3: scFv 1-434 (scFv, V domains shown)
VH: QVQLVQSGAEVKKPGSSVKVSCKASGGSFSDYTIIWLRQARGHGLEWMGKIVPILGVTTYAQEFQGRITITADRSTSTAYMELSSLRSEDTAVYYCARFLWGLDVWGQGTTVTVSS
VL: B2 VL with E3V, K16Q, Y97V, T101G, K104E, V105L
B4: scFv 1-438 (scFv, V domains shown)
VH: QVQLVQSGAEVKKPGSSVKVSCKASGGTFSNYDITWVRQAPGQGLEWVGKVIPILDVTNYAQKFQGRVTITADKSTSTAYMELSNLTSEDTAVYFCARFLWGLDVWGQGTMVTVSS
VL: B2 VL with E3V, K16Q, Y97K, T101G, K104E, V105L
B5: scFv 3-302 (scFv, V domains shown)
VH: QVQLVQSGAEVKRPGSSVKVSCKASGNTFSNYHINWVRQAPGQGLQWMGGIIPILGRTNYAQNFQGRVTITTDESTNTAYMELTSLRSEDTAVYYCAREARDSFDFWGQGTMVTVSS
VL: ELVLTQPPSVSVSPGQTASITCSGDKLGHTYTSWYQQKPGQSPVLVIYQDNRRPSGLPERFSGSNSGNTATLTISRVEAGDEADYYCQVWESSSDHLVFGGGTELTVL
B6: scFv 3-405 (scFv, V domains shown)
VH: B5 VH
VL: ELVLTQPPSVSVAPGKTARITCGENNIGSKSVHWYQQKPGQAPVLVIYYDTDRPSGIPARFSGSNSGNTATLTISRVEAGDEADYYCQVWDSSSDQRVFGGGTELTVL
B7: scFv 2-102 (scFv, V domains shown)
VH: QVQLVQSGAEVKKPGSSVKVSCRASGGTFSSYTINWVRQAPGQGLEWMGRVVPILGVTNYAQKFQGRVTITADKSTSTAYMELSSLRSEDTAVYYCARDKGYDNNYGAYWGQGTLVTVSS
VL: B2 VL with E3V, L4V, K16Q, K30I, S31N, D52A, S93R, H96Y, Y97W, T101G
B8: scFv 2-103 (scFv, V domains shown)
VH: B7 VH with R23K, T33D, R50S, V51I, V52I, V57I, T58S, K100Q, D103A
VL: B2 VL with E3V, K16Q, L45V, Y97W, T101G, K104E, V105L
B9: scFv 3-301 (scFv, V domains shown)
VH: EVQLVQSGAEVKKPGSSVKVSCKASGGTFSSYAISWVRQAPGQGLEWMGGIIPILGITNYAQKFQGRVTITADESTGAAYMELSSLASEDTAVYYCARDDTGRDDYFEYWGQGTLVTVSS
VL: ELVLTQPPSVSVSPGQTARITCSGDALPKQYAYWYQQKPGQAPVLVIYKDSERPSGIPERFSGSSSGTTVTLTISGVQAEDEADYYCQSADSNGTYKVFGGGTELTVL
B10: scFv 2-207 (scFv, V domains shown)
VH: QVQLVQSGAEVKKPGSSVKVSCKASGGTFSSYAISWVRQAPGQGLEWMGGITPILGVTNYSQKFQGRVTVTADISTTTAYMELSSLTSEDTAVYYCARDQGYANDYGAYWGQGTLVTVSS
VL: B2 VL with E3V, K16Q, Y48H, S75G, E78G, Y97W, T101G, K104Q, V105L
B11: scFv 2-301 (scFv, V domains shown)
VH: B10 VH
VL: B2 VL with E3V, K16Q, T21I, S31T, T71A, D91H, Y97W, T101G
B12: scFv 2-302 (scFv, V domains shown)
VH: EVQLVQSGAEVKKPGSSVKVSCKASGGTFSSYTINWVRQAPGQGLEWMGRIIPILGIENYAQKFQGRVTISADKSTSTAYMELSSLRSDDTAVYYCARDQVFGAYWGPGTLVTVSS
VL: ELVLTQPPSVSVAPGQTAIITCGGSNIGTKSVHWYQQKSGQAPVLVVHDDAHRPSGIPERFSGSNSGNTATLTISRVEAGDEADYYCQVWESSSDHWVFGGGTKVTVL
B13: scFv 1-403 (scFv, V domains shown)
VH: QVQLQESGGGVVQPGRSLRLSCAASGFTFRNYAMHWVRQAPGKGLEWVAVISYDGGKEYYADSVKGRFTISRDNSKNTLYLQMNSLRAEDTAVYYCARDTFSYYDFWRAFDYWGQGTLVTVSS
VL: ELVMTQSPSSLSASVGDTVTITCRASQSLRGYLNWYQQKPGEAPKLLIYAASTLRAGVPPRFSGAGYETDFSLTISNLQLEDFATYYCQQSHNVPLTFGGGTKVEIK
B14: scFv 3-305 (scFv, V domains shown)
VH: B5 VH
VL: B2 VL with E3V, Y97W, T101G, K104Q, V105L
B15: scFv 4-303 (scFv, V domains shown)
VH: QVQLVQSGAEVKKPGSSVKVSCKASGGTFSNYGISWVRQAPGQGLEWMGKIIPILGITNYAQKFQGRVTITADKSTSTAYMELSSLRSEDTAVYYCARGGGSYDFFDYWGQGTLVTVSS
VL: ELELTQPPSVSVAPGKAARLSCGGEDIGIKSVHWYQQKTGRAPVLVIYNDDDRPSGIPERFAGSNSGNTATLTISRVEAGDEADYYCEVWDSLTDRVVFGGGTKLTVL
B16: scFv 4-307 (scFv, V domains shown)
VH: QVQLVQSGAEVKKPGSSVKVSCKASGGTFSTYTINWMRQAPGQGLEWMGRIIPMFGTANYAQKFRGRVTITADESTSTAYMELSSLISEDTAIYYCARSGYSDAFDIWGQGTMVTVSS
VL: B6 VL with K16T, E24G, T51S, A59E, R97G, E104Q
B17: scFv z1-303 (scFv, V domains shown)
VH: QVQLQESGPGLVRPSQTLSLTCAISGDSVSNNNAAWNWIRQSPSRGLEWLGRTFYRSRWYNDYAVSVKSRIIINPDTSKNQFSLDLTSVTPEDTAVYFCAREGQWLPNYFDPWGQGTLVTVSS
VL: B2 VL with E3V, K16Q, R76G, A79V, S94R, Y97V, T101G, K104E, V105L
B18: scFv 1-406 (scFv, V domains shown)
VH: B2 VH with T28M, M34I, A40G, T69S, L70F, R87T, Y95F, L100V
VL: ELELTQPPSVSVFPGQTARITCSGDTLPKQYGNWYQQKPGQAPVVVIYKDTERPSGIPERFSGSSSGTTATLTISGVQAEDEADYYCQSADSNDWVLFGGGTKLTVL

target: T1, human ADAMTS13; assay: cell-based or functional assay

Binder	% ADAMTS13 activity in presence of scFv inhibitor (no rabbit IgG) [%]
B1	20

target: T2, hemagglutinin ectodomain of influenza virus H1/PR/8/34 (influenza virus H1/PR/8/34, UniProt P03452 18-528); assay: immunoassay or flow cytometry
T2 construct: extracellular domain; also called HA H1/PR/8/34
T2 sequence (P03452 18-528): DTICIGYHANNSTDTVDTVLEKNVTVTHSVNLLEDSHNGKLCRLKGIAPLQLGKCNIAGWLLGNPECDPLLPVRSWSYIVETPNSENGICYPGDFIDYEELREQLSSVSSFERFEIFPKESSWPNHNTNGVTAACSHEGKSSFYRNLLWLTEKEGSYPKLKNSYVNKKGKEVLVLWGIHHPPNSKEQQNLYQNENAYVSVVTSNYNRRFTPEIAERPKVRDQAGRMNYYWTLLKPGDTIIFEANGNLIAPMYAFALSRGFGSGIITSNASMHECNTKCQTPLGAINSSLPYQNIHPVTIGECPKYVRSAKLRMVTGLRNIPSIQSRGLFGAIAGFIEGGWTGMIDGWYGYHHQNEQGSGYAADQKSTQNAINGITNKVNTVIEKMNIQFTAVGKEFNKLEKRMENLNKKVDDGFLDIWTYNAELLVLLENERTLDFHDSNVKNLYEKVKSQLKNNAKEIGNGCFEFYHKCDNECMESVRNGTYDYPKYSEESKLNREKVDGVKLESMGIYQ

Binder	binding result
B1	no binding
B2	no binding
B3	no binding
B4	no binding
B5	no binding
B6	no binding
B7	no binding
B8	no binding
B9	no binding

target: T1, human ADAMTS13; assay: phage ELISA on ADAMTS13-coated plates (positive: >10-fold absorbance above background)

Binder	binding result
B2	binds
B3	binds
B4	binds
B10	binds
B11	binds
B12	binds
B13	binds
B5	binds
B14	binds
B6	binds
B15	binds
B16	binds
B17	binds
B18	binds
